Consider one molecule from publication doi:10.1101/473132 (bioRxiv, 2018).

Experiment [1] has as its target histone H4, within the H3Kc9me3 mononucleosome (X. laevis, UniProt P62799 2-103). The experiment is described as follows: cross-linking.
In experiment [2] the target is histone H2B, within the H3Kc9me3 mononucleosome (X. laevis, UniProt P02281 2-126). Nature of the experiment: cross-linking.

B1: Swi6 (S. pombe HP1 protein) (natural protein)
chain: MKKGGVRSYRRSSTSKRSVIDDDSEPELPSMTKEAIASHKADSGSSDNEVESDHESKSSSKKLKENAKEEEGGEEEEEDEYVVEKVLKHRMARKGGGYEYLLKWEGYDDPSDNTWSSEADCSGCKQLIEAYWNEHGGRPEPSKRKRTARPKKPEAKEPSPKSRKTDEDKHDKDSNEKIEDVNEKTIKFADKSQEEFNENGPPSGQPNGHIESDNESKSPSQKESNESEDIQIAETPSNVTPKKKPSPEVPKLPDNRELTVKQVENYDSWEDLVSSIDTIERKDDGTLEIYLTWKNGAISHHPSTITNKKCPQKMLQFYESHLTFRENE
As for B1, the binding result in experiment [1] and in experiment [2] was “binds” throughout.
